T1: human claudin 6 (CLDN6) (human, UniProt P56747 1-220)
T1 construct: also called human CLDN6; hCLDN6
T1 sequence: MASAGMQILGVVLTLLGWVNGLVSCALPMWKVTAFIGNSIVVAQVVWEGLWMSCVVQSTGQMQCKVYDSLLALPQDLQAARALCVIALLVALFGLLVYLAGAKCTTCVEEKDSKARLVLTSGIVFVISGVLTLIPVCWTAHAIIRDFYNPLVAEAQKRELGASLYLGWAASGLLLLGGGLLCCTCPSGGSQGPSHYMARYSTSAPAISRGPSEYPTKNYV

B1: BG87P-Bz0 (antibody, V domains shown)
VH: QIQLVQSGAEVKKPGASVKVSCKASGYSFTDYHINWVRQAPGQRLEWMGWIYPGSGYTKYNEKFKVRVTLTVDTSASTAYMELSSLRSEDTAVYFCARSGIYHYVSSYYFDHWGKGTTVTVSS
VL: DIQMTQSPSTLSASVGDRVTITCKASQDVGTAVAWYQQKPGKSPKLLIYWASTRHTGVPSRFSGSGSGTEFTLTISSVQPDDFATYFCQQYSSYTFGGGTKVEIK
notes: also called BG87-Bz0
B2: BG87P-m7 (antibody, V domains shown)
VH: QIQLVQSGAEVKKPGASVKVSCKASGYSFTDYHINWVRQAPGQRLEWMGWIYPGSGYTKYNEKFKGRVTLTVDTSASTAYMELSSLRSEDTAVYFCARSGIYHYVSSYYFDHWGKGTTVTVSS
VL: DIQMTQSPSTLSASVGDRVTITCKASQDVGTAVAWYQQKPGKSPKLLIYWASTRHTGVPSRFSGSGSGTEFTLTISSVQPDDFATYFCQQYSSYTFGGGTKVEIK
notes: PTM removal variant of BG87P-Bz0; constant regions not restated (parent: human IgG1/kappa)
B3: BG87P-Bz8 (antibody, V domains shown)
VH: QIQLVQSGAEVKKPGASVKVSCKASGYSFTDYHINWVRQAPGQRLEWMGWIYPGSGYTKYNEKFKVRVTLTVDTSASTAYMELSSLRSEDTAVYFCARSGIYHYVSSYYFDHWGKGTTVTVSS
VL: DIQMTQSPSTLSASVGDRVTITCKASQDVGTAVAWYQQKPGKSPKLLIYWASTRHTGVPSRFSGSGSGTEFTLTISSVQPDDFATYYCQQYSSYTFGGGTKVEIK
B4: BG87P-Bz5 (antibody, V domains shown)
VH: QIQLVQSGAEVKKPGASVKVSCKASGYSFTDYHINWVRQAPGQRLEWMGWIYPGSGYTKYNEKFKVRVTLTVDTSASTAYMELSSLRSEDTAVYYCARSGIYHYVSSYYFDHWGKGTTVTVSS
VL: DIQMTQSPSTLSASVGDRVTITCKASQDVGTAVAWYQQKPGKSPKLLIYWASTRHTGVPSRFSGSGSGTEFTLTISSVQPDDFATYFCQQYSSYTFGGGTKVEIK
B5: BG87P-Bz3 (antibody, V domains shown)
VH: QIQLVQSGAEVKKPGASVKVSCKASGYSFTDYHINWVRQAPGQRLEWMGWIYPGSGYTKYNEKFKVRVTITVDTSASTAYMELSSLRSEDTAVYFCARSGIYHYVSSYYFDHWGKGTTVTVSS
VL: DIQMTQSPSTLSASVGDRVTITCKASQDVGTAVAWYQQKPGKSPKLLIYWASTRHTGVPSRFSGSGSGTEFTLTISSVQPDDFATYFCQQYSSYTFGGGTKVEIK
B6: BG87P-Bz2 (antibody, V domains shown)
VH: QIQLVQSGAEVKKPGASVKVSCKASGYTFTDYHINWVRQAPGQRLEWMGWIYPGSGYTKYNEKFKVRVTLTVDTSASTAYMELSSLRSEDTAVYFCARSGIYHYVSSYYFDHWGKGTTVTVSS
VL: DIQMTQSPSTLSASVGDRVTITCKASQDVGTAVAWYQQKPGKSPKLLIYWASTRHTGVPSRFSGSGSGTEFTLTISSVQPDDFATYFCQQYSSYTFGGGTKVEIK
B7: BG87P-Bz1 (antibody, V domains shown)
VH: QVQLVQSGAEVKKPGASVKVSCKASGYSFTDYHINWVRQAPGQRLEWMGWIYPGSGYTKYNEKFKVRVTLTVDTSASTAYMELSSLRSEDTAVYFCARSGIYHYVSSYYFDHWGKGTTVTVSS
VL: DIQMTQSPSTLSASVGDRVTITCKASQDVGTAVAWYQQKPGKSPKLLIYWASTRHTGVPSRFSGSGSGTEFTLTISSVQPDDFATYFCQQYSSYTFGGGTKVEIK
B8: BG87P-Bz7 (antibody, V domains shown)
VH: QIQLVQSGAEVKKPGASVKVSCKASGYSFTDYHINWVRQAPGQRLEWMGWIYPGSGYTKYNEKFKVRVTLTVDTSASTAYMELSSLRSEDTAVYFCARSGIYHYVSSYYFDHWGKGTTVTVSS
VL: DIQMTQSPSTLSASVGDRVTITCKASQDVGTAVAWYQQKPGKSPKLLIYWASTRHTGVPSRFSGSGSGTEFTLTISSLQPDDFATYFCQQYSSYTFGGGTKVEIK
B9: BG87P-m8 (antibody, V domains shown)
VH: QIQLVQSGAEVKKPGASVKVSCKASGYSFTDYAINWVRQAPGQRLEWMGWIYPGSGYTKYNEKFKVRVTLTVDTSASTAYMELSSLRSEDTAVYFCARSGIYHYVSSYYFDHWGKGTTVTVSS
VL: DIQMTQSPSTLSASVGDRVTITCKASQDVGTAVAWYQQKPGKSPKLLIYWASTRHTGVPSRFSGSGSGTEFTLTISSVQPDDFATYFCQQYSSYTFGGGTKVEIK
notes: Variant of BG87P-Bz0 with H33A; constant regions not restated (parent: human IgG1/kappa)
B10: BG87P-Bz6 (antibody, V domains shown)
VH: QIQLVQSGAEVKKPGASVKVSCKASGYSFTDYHINWVRQAPGQRLEWMGWIYPGSGYTKYNEKFKVRVTLTVDTSASTAYMELSSLRSEDTAVYFCARSGIYHYVSSYYFDHWGKGTTVTVSS
VL: DIQMTQSPSTLSASVGDRVTITCKASQDVGTAVAWYQQKPGKAPKLLIYWASTRHTGVPSRFSGSGSGTEFTLTISSVQPDDFATYFCQQYSSYTFGGGTKVEIK
B11: BG87P-m5 (antibody, V domains shown)
VH: QIQLVQSGAEVKKPGASVKVSCKASGYSFTDYHINWVRQAPGQRLEWMGWIYPGSGYTKYNEKFKVRVTLTVDTSASTAYMELSSLRSEDTAVYFCARSGIYHYVSSYYFEHWGKGTTVTVSS
VL: DIQMTQSPSTLSASVGDRVTITCKASQDVGTAVAWYQQKPGKSPKLLIYWASTRHTGVPSRFSGSGSGTEFTLTISSVQPDDFATYFCQQYSSYTFGGGTKVEIK
notes: as for B2
B12: BG87P-Bz4 (antibody, V domains shown)
VH: QIQLVQSGAEVKKPGASVKVSCKASGYSFTDYHINWVRQAPGQRLEWMGWIYPGSGYTKYNEKFKVRVTLTRDTSASTAYMELSSLRSEDTAVYFCARSGIYHYVSSYYFDHWGKGTTVTVSS
VL: DIQMTQSPSTLSASVGDRVTITCKASQDVGTAVAWYQQKPGKSPKLLIYWASTRHTGVPSRFSGSGSGTEFTLTISSVQPDDFATYFCQQYSSYTFGGGTKVEIK
B13: BG87P-m6 (antibody, V domains shown)
VH: QIQLVQSGAEVKKPGASVKVSCKASGYSFTDYHINWVRQAPGQRLEWMGWIYPGSGYTKYNEKFKVRVTLTVDTSASTAYMELSSLRSEDTAVYFCARSGIYHYVSSYYFQHWGKGTTVTVSS
VL: DIQMTQSPSTLSASVGDRVTITCKASQDVGTAVAWYQQKPGKSPKLLIYWASTRHTGVPSRFSGSGSGTEFTLTISSVQPDDFATYFCQQYSSYTFGGGTKVEIK
notes: as for B2
B14: BG87P-m1 (antibody, V domains shown)
VH: QIQLQQSGPELVKPGASVKISCKASGYSFTDYHINWVKQRPGQGLEWIGWIYPGSGYTKYNEKFKVKATLTVDTSSSTAYMHLTSLTSEDSAVYFCARSGIYHYVSSYYFEHWGQGTTLTVSS
VL: DIVMTQSHTFMSTSVGDRVSITCKASQDVGTAVAWYQQKPGQSPKLLIYWASTRHTGVPDRFTGSGSGTDFTLTISNVQSEDLADYFCQQYSSYTFGGGTKLEIK
notes: PTM removal variant of chBG87P; constant regions not restated (parent: human IgG1/kappa)
B15: BG87P-m2 (antibody, V domains shown)
VH: QIQLQQSGPELVKPGASVKISCKASGYSFTDYHINWVKQRPGQGLEWIGWIYPGSGYTKYNEKFKVKATLTVDTSSSTAYMHLTSLTSEDSAVYFCARSGIYHYVSSYYFQHWGQGTTLTVSS
VL: DIVMTQSHTFMSTSVGDRVSITCKASQDVGTAVAWYQQKPGQSPKLLIYWASTRHTGVPDRFTGSGSGTDFTLTISNVQSEDLADYFCQQYSSYTFGGGTKLEIK
notes: as for B14

One may read the EC50 as the concentration that produces a half-maximal response.

The experiment deals with T1, human claudin 6 (CLDN6). Description: FACS, HEK293T/human CLDN6 cells. As for the experimental part:
For affinity determination, CLDN6 over-expressing HEK293T cells and cancer cell line PA-1 which express high levels of human CLDN6 were used to evaluate the binding activity of BG87P related engineering variants. Live cells were seeded in 96-well plate, and were incubated with a series of dilutions of chBG87P and engineered variants thereof. Goat anti-human IgG was used as second antibody to detect antibody binding to the cell surface. EC50 values for dose-dependent binding to CLDN6 expressing cell lines were determined by fitting the dose-response data to the four-parameter logistic model with GraphPad Prism. Cell binding activity of 1st round of BG87P humanization variants against HEK293T/human CLDN6 were compared to chBG87P and shown in FIG. 1A.
Beginning with the chBG87P antibody and BG87P-Bz0, several additional amino acid changes in the CDR regions of both VH and VL were made to further improve the biophysical properties for therapeutics use in human. The considerations included removing post translational modifications (PTM), improved heat stability (Tm), while maintaining binding activities, the resulted variants are BG87P-m1 (VH SEQ ID NO: 31 and VL SEQ ID NO: 8), BG87P-m2 (VH SEQ ID NO: 32 and VL SEQ ID NO: 8), BG87P-m3 (VH SEQ ID NO: 33 and VL SEQ ID NO: 8), and BG87P-m4 (VH SEQ ID NO: 34 and VL SEQ ID NO: 8) and BG87P-m5 (VH SEQ ID NO: 35 and VL SEQ ID NO: 14), BG87P-m6 (VH SEQ ID NO: 36 and VL SEQ ID NO 14), BG87P-m7 (VH SEQ ID NO: 37 and VL SEQ ID NO: 14), and BG87P-m8 (VH SEQ ID NO: 38 and VL SEQ ID NO: 14). Cell binding activity of chBG87P and BG87P-Bz0 related PTM removal variants against HEK293T/human CLDN6 was compared with chBG87P and BG87-Bz0, respectively ([…]). Cell binding affinity (EC50) and Emax (MFI) was normalized to chBG87P for directly comparison and ranking (Table 7).
Background: In flow cytometry, cells or beads pass a laser one at a time.
Turning to B1, a half-maximal response (EC50) required 2.1 nM, the “Emax ratio to BG87P” value amounted to 0.56 ratio and the “Top MFI Mean” value worked out at 107000 MFI.
Consider B2, for which the response was half-maximal at 2.43 nM (EC50), the “Emax ratio to BG87P” value stood at 0.7 ratio and the “Top MFI Mean” value turned out to be 134000 MFI.
The like results for B3 were, in that order, 1.71 nM, 0.68 ratio and 131000 MFI.
In the same order, the values of B4 are 2.55 nM, 0.73 ratio and 141000 MFI.
B5: the half-maximal effective concentration (EC50) amounted to 2.63 nM, the “Emax ratio to BG87P” value was 0.56 ratio and the “Top MFI Mean” value was found to be 107000 MFI.
The like results for B6 were, in that order, 2.65 nM, 0.44 ratio and 84300 MFI.
In the same order, the values of B7 are 2.19 nM, 0.52 ratio and 99700 MFI.
In the same order, the values of B8 are 2.54 nM, 0.81 ratio and 155000 MFI.
B9: the EC50 was 48.7 nM, the “Emax ratio to BG87P” value was found to be 0.28 ratio and the “Top MFI Mean” value came out at 54000 MFI.
In the same order, the values of B10 are 2.79 nM, 0.75 ratio and 144000 MFI.
In the same order, the values of B11 are 4.19 nM, 0.66 ratio and 126000 MFI.
Take B12: the EC50 was found to be 1.88 nM, the “Emax ratio to BG87P” value amounted to 0.57 ratio and the “Top MFI Mean” value is 110000 MFI.
The like results for B13 were, in that order, 2.34 nM, 0.62 ratio and 118000 MFI.
The like results for B14 were, in that order, 3.56 nM, 1.08 ratio and 207000 MFI.
The like results for B15 were, in that order, 2.51 nM, 1.05 ratio and 202000 MFI.

For the origin of these results see US20240301062A1 (BEIGENE SWITZERLAND, published 2024).
